Patent US20150079112A1 (SAMSUNG ELECTRONICS, published 2015)

Columns and labels:
[1] = target: T1, mutant Ang2 protein, Y460 substituted with alanine, FLAG-tagged at its N-terminal (human, UniProt O15123 19-496, limits assumed); test: ELISA, coated antibody 1000 nM, 250 ng FLAG-tagged mutant Ang2, anti-FLAG-HRP, OD450
T1 sequence: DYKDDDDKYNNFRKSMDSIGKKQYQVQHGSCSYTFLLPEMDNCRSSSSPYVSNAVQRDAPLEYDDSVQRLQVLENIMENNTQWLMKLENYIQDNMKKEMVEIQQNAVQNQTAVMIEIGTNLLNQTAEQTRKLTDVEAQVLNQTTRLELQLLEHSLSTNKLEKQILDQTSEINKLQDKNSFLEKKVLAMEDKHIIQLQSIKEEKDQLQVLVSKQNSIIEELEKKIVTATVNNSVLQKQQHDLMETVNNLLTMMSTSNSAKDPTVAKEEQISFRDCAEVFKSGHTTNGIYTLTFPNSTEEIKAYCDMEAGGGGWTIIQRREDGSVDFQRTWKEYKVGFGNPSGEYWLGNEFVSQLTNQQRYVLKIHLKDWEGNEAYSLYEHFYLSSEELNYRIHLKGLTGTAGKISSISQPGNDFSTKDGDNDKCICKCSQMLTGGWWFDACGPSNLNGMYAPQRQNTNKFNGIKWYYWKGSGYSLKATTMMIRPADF
Description: (§1) Each well of a 96-well MaxiSorp™ flat-bottom plate (Nunc) was coated with 50 ul (microliter) of 1000 nM antibody. Then, the plate was washed five times with 0.05% (v/v) Tween-20-containing PBS (PBST) and blocked with 1% (v/v) BSA-containing PBS at a room temperature for 2 hours. 250 ng of each mutant Ang2 protein obtained by substituting S417, Q418, P419, N421, I434, D448, A449, P452, Y460, N467, K468, or F469 residue of Ang2 protein tagged with a FLAG sequence ([…], Sigma) at its N-terminal with alanine was added to each well of the plate, which was then allowed to react at a room temperature for 2 hours.
(§2) The plate was washed five times with 0.05% (v/v) Tween-20 containing PBS, reacted with an anti-FLAG antibody (SIGMA) conjugated with HRP which was diluted in 1% (v/v) BSA-containing PBS at a ratio of 1:5,000 (v/v) at a room temperature for 1 hour, and washed five times with 0.1% (v/v) Tween-20-containing PBS.
(§3) Finally, 50 ul of TMB substrates (Cell signaling) was added to each well of the plate to induce color development at a room temperature for 3 min. and the reaction was ceased by the addition of 50 ul of Stop solution (Cell signaling) and then, OD450 values were measured on a plate reader (Molecular Devices). By comparing binding affinities with mutated Ang2 to those of unmutated Ang2, each epitope of Ang2 antibodies was identified. The thus obtained measurement results of the binding affinities (%) with mutant Ang2 against the binding affinity with the native Ang2 are shown in the following Table 8.

[2] = target: T2, mutant Ang2 protein, K468 substituted with alanine, FLAG-tagged at its N-terminal (human, UniProt O15123 19-496, limits assumed); test: as above
T2 sequence: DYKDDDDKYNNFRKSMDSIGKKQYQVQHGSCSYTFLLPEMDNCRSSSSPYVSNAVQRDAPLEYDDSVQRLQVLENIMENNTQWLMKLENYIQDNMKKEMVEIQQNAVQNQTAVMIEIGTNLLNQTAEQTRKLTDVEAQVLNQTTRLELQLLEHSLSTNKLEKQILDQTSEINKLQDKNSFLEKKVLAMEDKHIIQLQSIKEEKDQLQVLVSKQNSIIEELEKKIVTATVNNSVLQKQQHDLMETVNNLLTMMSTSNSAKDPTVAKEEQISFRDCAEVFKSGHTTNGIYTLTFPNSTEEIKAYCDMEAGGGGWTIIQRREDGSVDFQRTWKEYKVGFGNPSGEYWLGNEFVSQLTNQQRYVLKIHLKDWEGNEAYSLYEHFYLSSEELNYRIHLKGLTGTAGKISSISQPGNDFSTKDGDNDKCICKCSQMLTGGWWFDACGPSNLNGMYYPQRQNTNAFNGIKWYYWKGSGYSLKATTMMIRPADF
Description: as §1, §2, §3

[3] = target: T3, recombinant hAng2 (C-His, R&D Systems) (human, UniProt O15123 19-496); test: SPR, BIAcore T100; hAng2 (C-His) captured on anti-His antibody on a CM5 chip, antibody flowed from 100 nM in twofold dilutions
T3 construct: also called human Ang2 protein
T3 sequence: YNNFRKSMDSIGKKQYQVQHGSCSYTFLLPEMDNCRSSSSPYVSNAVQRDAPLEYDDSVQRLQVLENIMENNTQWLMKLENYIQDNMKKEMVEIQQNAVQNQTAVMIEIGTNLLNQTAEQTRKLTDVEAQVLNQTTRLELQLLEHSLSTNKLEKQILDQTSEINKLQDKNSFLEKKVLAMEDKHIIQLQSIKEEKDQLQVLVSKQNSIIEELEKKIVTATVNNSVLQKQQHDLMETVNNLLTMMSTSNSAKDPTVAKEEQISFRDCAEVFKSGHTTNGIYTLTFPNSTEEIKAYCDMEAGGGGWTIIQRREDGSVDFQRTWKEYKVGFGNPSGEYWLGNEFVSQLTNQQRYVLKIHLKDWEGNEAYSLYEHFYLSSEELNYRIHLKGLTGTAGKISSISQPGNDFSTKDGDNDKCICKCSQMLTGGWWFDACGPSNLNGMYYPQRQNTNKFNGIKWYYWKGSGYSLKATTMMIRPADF
Description: The binding affinity of the above antibody to human Ang2 protein was measured by an SPR method using a BIAcore T100 (GE Healthcare). The SPR method uses refractive index change of light which passes a sensor chip according to the state of materials coated onto the sensor chip, and if an antigen or an antibody is flowed onto a chip coated with the antigen or antibody, it causes changes in refractive index due to their binding and Kd values are thus calculated from the measured values.
First, anti-His antibody was immobilized on a CM5 sensor chip (GE healthcare) up to 8,000 RU levels using a pH 5.0 acetate solution and an amine coupling kit (GE Healthcare). 6 μg/ml of a recombinant hAng2 (C-His, R&D Systems) protein was flowed onto the chip to be captured at 100 to 200 RU levels.

[4] = target: mutant Ang2 protein, A449 substituted with alanine, FLAG-tagged at its N-terminal (human) (UniProt O15123); test: ELISA, coated antibody 1000 nM, 250 ng FLAG-tagged mutant Ang2, anti-FLAG-HRP, OD450

B1: SAIT-ANG2-AB-m10D6 (antibody, V domains shown)
VH: DVQLQESGPGLVKPSQSLSLTCTVTGYSITSDYAWNWIRQFPGNKLEWMGYINYSGNTDYNPSLKSRSSITRDTSKNQFFLQLNSVTTGDTATYYCARGNFEGAMDYWGQGTSVTVSS
VL: SIVMTQTPKFLLVSAGDRVTITCKASQSVSNDVAWYQQKPGQSPKLLIYYASNRYPGVPDRFTGSGYGTDFTFTISTVQAEDLAVYFCQQDYSSPWTFGGGTKLEIK
notes: also called antibody 10D6; anti-Ang2 antibody (10D6)
**Q.** For B1, which “binding affinity (%) with mutant Ang2 against the binding affinity with the native Ang2” value [1] is on record?
**A.** 103%

**Q.** What about the “binding affinity (%) with mutant Ang2 against the binding affinity with the native Ang2” value [2] of the same binder?
**A.** 110%

**Q.** What about the Kd [3] of the same binder?
**A.** 8 nM

**Q.** And the binding affinity (%) with mutant Ang2 against the binding affinity with the native Ang2 [4]?
**A.** 97.9%
